Consider 40 molecules from PMC12416549 (2024).

Changes are numbered by the printed parent chain. Names may count otherwise.

T1: TNFR1 (Homo sapiens, UniProt P19438)
T1 chain: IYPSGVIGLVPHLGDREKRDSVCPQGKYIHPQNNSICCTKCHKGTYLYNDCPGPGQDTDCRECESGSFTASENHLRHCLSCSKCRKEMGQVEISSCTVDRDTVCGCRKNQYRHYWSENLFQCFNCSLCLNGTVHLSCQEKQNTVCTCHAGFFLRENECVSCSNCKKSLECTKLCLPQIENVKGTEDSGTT

B1: A69T (designed binder)
chain: MTLQELLREEALRRAEAEAFRYALELLAEKFPEQKEYLLDLAEEIESQIRSLSGVDVEDVRKFLDKEWTWVKELLAEHPAELAEVEAARAARLAELRAEVEAKVAA
B2: L38K (designed binder)
chain: B1 chain with L38K, T69A
B3: L82W (designed binder)
chain: B1 chain with T69A, L82W
B4: S53P (designed binder)
chain: B1 chain with S53P, T69A
B5: K66A (designed binder)
chain: B1 chain with K66A, T69A
B6: S53L (designed binder)
chain: B1 chain with S53L, T69A
B7: L7H (designed binder)
chain: B1 chain with L7H, T69A
B8: A88N (designed binder)
chain: B1 chain with T69A, A88N
B9: E73N (designed binder)
chain: B1 chain with T69A, E73N
B10: H78K (designed binder)
chain: B1 chain with T69A, H78K
B11: P79M (designed binder)
chain: B1 chain with T69A, P79M
B12: I49M (designed binder)
chain: B1 chain with I49M, T69A
B13: E73Y (designed binder)
chain: B1 chain with T69A, E73Y
B14: A87P (designed binder)
chain: B1 chain with T69A, A87P
B15: R14I (designed binder)
chain: B1 chain with R14I, T69A
B16: E46A (designed binder)
chain: B1 chain with E46A, T69A
B17: L38M (designed binder)
chain: B1 chain with L38M, T69A
B18: S47D (designed binder)
chain: B1 chain with S47D, T69A
B19: L24W (designed binder)
chain: B1 chain with L24W, T69A
B20: E67D (designed binder)
chain: B1 chain with E67D, T69A
B21: A42M (designed binder)
chain: B1 chain with A42M, T69A
B22: D65Q (designed binder)
chain: B1 chain with D65Q, T69A
B23: S47P (designed binder)
chain: B1 chain with S47P, T69A
B24: Q4L (designed binder)
chain: B1 chain with Q4L, T69A
B25: F20G (designed binder)
chain: B1 chain with F20G, T69A
B26: V100L (designed binder)
chain: B1 chain with T69A, V100L
B27: S47A (designed binder)
chain: B1 chain with S47A, T69A
B28: D56Q (designed binder)
chain: B1 chain with D56Q, T69A
B29: E81F (designed binder)
chain: B1 chain with T69A, E81F
B30: V60F (designed binder)
chain: B1 chain with V60F, T69A
B31: R89H (designed binder)
chain: B1 chain with T69A, R89H
B32: R8M (designed binder)
chain: B1 chain with R8M, T69A
B33: E95C (designed binder)
chain: B1 chain with T69A, E95C
B34: P79S (designed binder)
chain: B1 chain with T69A, P79S
B35: K103D (designed binder)
chain: B1 chain with T69A, K103D
B36: V55D (designed binder)
chain: B1 chain with V55D, T69A
B37: E33P (designed binder)
chain: B1 chain with E33P, T69A
B38: R61P (designed binder)
chain: B1 chain with R61P, T69A
B39: Y37P (designed binder)
chain: B1 chain with Y37P, T69A
B40: T2Y (designed binder)
chain: B1 chain with T2Y, T69A

The assay has as its target T1, TNFR1. Put plainly: yeast display SC50.
B1: the “apparent Kd (screen)” value turned out to be 0.718 nM.

Turning to B2, the “apparent Kd (screen)” value was 4.39 nM. As for B3, the “apparent Kd (screen)” value was 0.956 nM. To B4 belongs 13.8 nM; to B5, 0.49 nM; to B6, 2.25 nM. To B7 belongs 7.07 nM; to B8, 0.718 nM; to B9, 1.86 nM. For B10, the “apparent Kd (screen)” value came out at 0.446 nM. To B11 belongs 0.446 nM; to B12, 0.869 nM; to B13, 0.539 nM. As for B14, the figure is 0.956 nM; as for B15, 0.539 nM; as for B16, 0.49 nM. In the case of B17, the “apparent Kd (screen)” value stood at 0.539 nM. Consider B18, for which the “apparent Kd (screen)” value amounted to 1.27 nM.

Take B19: the “apparent Kd (screen)” value stood at 4.83 nM.

Regarding B20, the “apparent Kd (screen)” value stood at 4.83 nM.

For B21, the “apparent Kd (screen)” value worked out at 2.48 nM.

In the case of B22, the “apparent Kd (screen)” value is 0.79 nM. Take B23: the “apparent Kd (screen)” value turned out to be 3.3 nM.

With B24, the “apparent Kd (screen)” value stood at 0.446 nM. With B25, the “apparent Kd (screen)” value was 0.869 nM. With B26, the “apparent Kd (screen)” value turned out to be 0.49 nM. As to B27, the “apparent Kd (screen)” value was 0.49 nM.

As for B28, the “apparent Kd (screen)” value stood at 1.4 nM. On to B29, for which the “apparent Kd (screen)” value was determined as 0.718 nM. On to B30, for which the “apparent Kd (screen)” value came to 0.49 nM. Regarding B31, the “apparent Kd (screen)” value turned out to be 0.539 nM. As for B32, the figure is 0.49 nM; as for B33, 0.49 nM.

For the molecule B34, the “apparent Kd (screen)” value is 0.593 nM.

In the case of B35, the “apparent Kd (screen)” value turned out to be 0.718 nM.

For B36, the “apparent Kd (screen)” value worked out at 9.41 nM. To B37 belongs 0.539 nM; to B38, 26.9 nM. Regarding B39, the “apparent Kd (screen)” value stood at 18.3 nM. Regarding B40, the “apparent Kd (screen)” value was found to be 0.869 nM.
